In patent US20260258115A1 (MAPP BIOPHARMACEUTICAL, published 2026):
Where a chain is given by its changes, count along the chain named.

B1: ADI-41366 (antibody, V domains shown)
VH: QVQLVQSGAEVKKPGESLKISCKASGYSSTTYWIGWVRQISGKGLEWMGIIYPGDSDTRYSPSFQGQVTISADRSTKTAYLQWSSLKASDTAMYYCGTSGFGVATPFDYWGQGTLVTVSS
VL: NFMLTQPHSVSESPGKTVTISCTRTSGSIAGNYVHWYQQRPGSAPTTVIYEDNQRPSGVPDRFSGSIDRSSNSASLTISGLKTEDEADYYCQSYASGIHGVFGGGTKVTVL
notes: IgG1
B2: ADI-41375 (antibody, V domains shown)
VH: QVQLVQSGGGVVQPGRSLRLSCATSGFTFSDYAIHWVRQAPGKGLEWVAVISYDGSHKYYGDSVKGRFTISRDNSKNTLYLQMNSLRPEDTAVYYCARSRSGSYYSSAIDNWGQGTLVTVSS
VL: DIQMTQSPSSLSASVGDRVTIACRASQGISSALAWYRQRPGKAPELLIYDASTLESGVPSRFSGYGAGTDFTLTISSLQPEDFATYYCQQFNSYPSITFGQGTKVEIK
notes: IgG1
B3: ADI-41384 (antibody, V domains shown)
VH: QVQLVQSGAEVKKPGSSVRVSCKASGGTFSRYAISWVRQAPGQGLEWMGGVIPRFDKTNYAQKFQGRVMITADKSTSTAYMELSSLRSDDTAVYYCAGDRLDTKITHTWYGFGDFWGQGTTVTVSS
VL: EIVLTQSPGTLSLSPGERATLSCRASQSVTSNFLAWYQQRPGQAPRLLIYGASVRAIDIPDRFSGSGSGTDFTLTISRLEPEDFAVYYCQQYGDPFRTFGQGTKVEIK
notes: IgG1; also called Ab 680
B4: ADI-41365 (antibody, V domains shown)
VH: EVQLVESGGGLVKPGGSLRLSCATSGFTFSDYYMTWIRQAPGKGLEWVSYISSSGGYTNYADSVRGRFTISRDNAKRSLYLQMNSLRAEDTAVYYCARVEFSSGDVPSLFDSWGQGTLVTVSS
VL: QSVLTQPPSVSGAPGQRVTISCTGSSSNLGAGYHVHWYQQFPGTAPKPLIYGNTNRPSGVPDRFSGSKSGTSASLAITGVQAEDEADYYCQSYDYSLSGWVFGGGTKLTVL
notes: IgG1
B5: ADI-41373 (antibody, V domains shown)
VH: QVTLKESGGGLVKPGGSLRLSCAASGFTFSDYFMTWIRQAPGKGLEWVSYISSNSGYTKYAEDVKGRFSISRDNAKKTLFLQLNSLSAEDTAVYYCARVEFSSGDVPSLFDLWGQGTLVTVSS
VL: B4 VL with L29I, F41L, P48V, Y51H, T54N, K68R, V80L, Y95F
notes: IgG1; also called Ab 670
B6: ADI-41369 (antibody, V domains shown)
VH: EVQLVQSGGGVVQPGRSLRLSCAASGFTFSSYGMHWVRQAPGKGLEWVAVISHDGNNKYYGDSVKGRFTISRDNSKNTLHLQMNSLRGDDTAVYYCGKDPLKGDCSGGSCYQRIDYWGQGTLVTVSS
VL: NFMLTQPHSVSESPGKTVTISCTGSSGRIASNYVQWYQQRPGSAPATVIYDDNQRPSGVPDRFSGSIDSSSNSASLTISGLKTEDEADYYCQSYDRSNHVIFGGGTKLTVL
notes: IgG1; also called Ab 666
B7: ADI-41370 (antibody, V domains shown)
VH: EVQLVESGGGLVKPGGSLRLSCAASGFTFSGFSMNWVRQAPGKGLEWVSSISSTSRYIYYADSVQGRFTISRDNAKNSLYLQMNSLRAEDTAVYYCARDPGGSASFVPYYYGMDVWGQGATVTVSS
VL: SYELIQPPSVSVSPGQTARITCSGDALPNQYVYWYQKKPGQAPVLVIYKDTEGPLGIPERFSGSSSGTTVTLTISGVQAEDEADYYCQSADSSGTYPYVVFGGGTKLTVL
notes: IgG1; also called Ab 667
B8: ADI-41391 (antibody, V domains shown)
VH: EVQLLESGPGLVKPSETLSLTCTVSGGSISGYYWSWIRQPPGKGLEWIGYIYHSGGSTNYNPSLKSRVTISVDTSKNQFSLKVSSVTAADTAVYYCARLARVVTTFDFWGQGALVTVSS
VL: QPVLTQPASVSGSPGQSITISCTGTSSDVGGYNYVSWYQQKPGTAPKLMIFDVSNRPSGVSNRFSGSKSDNTASLTISGLQAEDEADYYCSSYTSSTNLVFGGGTKLTVL
notes: IgG1
B9: ADI-41376 (antibody, V domains shown)
VH: QVQLQESGGGVVQPGRSLRLSCAASGFTFSSYAMHWVRQAPGKGLEWVAVISFDGTANKYYADSVKGRFAISRDNSKNTLYLQMNSLRAEDTAVYYCAKDDAIYSGGWVGDAFDLWGQGTMVTVSS
VL: EIVLTQSPATLSVSPGERATLSCRASQGVNSNLAWYQQKPGQAPRLLMYGASTRATGIPARFSGSGSETEFTLTISSLQSEDFAVYYCQQYNNWPRTFGQGTKVDIK
notes: IgG1; also called Ab 673
B10: ADI-41374 (antibody, V domains shown)
VH: QVQLVQSGAEVKKPGSSVKVSCKASGGTFSNHAIDWVRQAPGQGLEWMGRIIPMVGLATYTRKFQGRVTISVDKSTSTAYMELSSLISDDTAVYYCARRTPEMAWGYWGQGTTVTVSS
VL: DIVMTQTPSSLSASVGDRVTITCQASQDIRYYVNWYQQKPGKAPKLLIYDASTLETGVPSRFSGRGSGTDFTLIISSLQPEDIATYYCQQYGDLPTFGQGTRLEIK
notes: IgG1; also called Ab 671
B11: ADI-41371 (antibody, V domains shown)
VH: QVQLQESGPRLVKPSQTLSLTCTVSGGSITTGEHYWSWIRQSPGRGLEWIGYISYSGSTYYNPSLKSRVTISVDTSKTRISLNLRSVTAADSAVYYCARDQEDSDYIWGSSRVFDIWGQGTMVTVSS
VL: ETTLTQSPGTLSLSPGERATLSCRASQNVGNNYLAWYQQKPGQAPRVLIQDASTRATGIPDRFSGSGSGTDFTLTISRLEPEDFAVYHCQQYGSAPWTFGQGTKVEIK
notes: IgG1; also called Ab 668
B12: ADI-41367 (antibody, V domains shown)
VH: QVQLVQSGAAVKRPGASVKVSCKASGYTFSTNALHWVRQAPGQSLEWMGWINTDNGIPKYSERFHGRVTFTRDTSASTVYMDLSGLRSGDTAVYYCARDGSSGHWLGLSVLDNWGQGTLVTVSS
VL: QSALIQPASVSGSPGQSITISCTGTSDDVGAYNYVSWYQQYPNKAPKLVIYEVSHRPSGVSNRFSGSKSGNTASLTISGLQAEDEADYYCSSYTRSATPYVFGTGTKLTVL
notes: IgG1
B13: ADI-41381 (antibody, V domains shown)
VH: QVQLQESGPGLVKPSQTLSLTCTVSGDSISGGEHYWSWIRQPPGKGLEWIGSIYYSGTTYYNPSLKSRLTVSVDTFKNQFSLMLSYVTAADTAVYYCARDASPAYHDYIWGSCRYFDKWGQGTLVTVSS
VL: EIVLTQSPGTLSLSPGERATLSCRASQSVSSNYLAWYQQKPGQAPRILIHGASSRATGIPDRFSGSGSGTDFTLTVSRLEPEDFAVYYCQQYGSTPYTFGQGTKVEIK
notes: IgG1; also called Ab 678
B14: ADI-41378 (antibody, V domains shown)
VH: EVQLVESGPGLVKPSGTLSLTCAVSGDSISSSNWWSWVRQPPGKGLEWIGEVSHSGNTDYNPSLKSRVTISVDKSKNQFSLKLSSVTAADTAVYYCARPSPCSGGSCYWFFDLWGRGTLVTVSS
VL: DIRLTQSPSSLSASVGDRVTITCRASQTINAYLNWYQQRPGKAPNLLIYAASSLQSGVPSRFSGSGSGTDFTLTISSLQPEDFATYYCQQSYKTAYTFGQGTKVEIK
notes: IgG1
B15: ADI-41385 (antibody, V domains shown)
VH: EVQLVESGGGVVQPGRSLRLSCAASGFTFSSYGMHWVRQAPGKGLEWVAVIWYDGNNEKYADSVKGRFTISRDNSKNTLYLQMNSLRAEDTAVYYCARPTQKYSSSWYWEDSIDYWGQGTLVTVSS
VL: QSVLTQPPSVFGAPGQRVTISCTGSSSNIGAGYPVHWYQQLPGTAPKLLIYGNSNRPSGVPDRFSGSKSGTSASLAITGLQAEDEADYYCQSYDSSLSGGVVFGGGTKLTVL
notes: IgG1; also called Ab 681
B16: ADI-41368 (antibody, V domains shown)
VH: EVQLVESGGGVVQPGRSLRLSCAASGFIFRNYGMHWVRQAPGKGLEWVAGTSFEGRNKDYGHSVKGRFTISRDNSKDTLYLQMNSLRPEDTAVYSCAKGSSLQWSHLDWYFDLWGRGTLVTVSS
VL: DIVMTQSPSTLSASVGDRVTITCRASQSFSSWLAWYQQKPGKAPNLLIYDASTLESGVPSRFSGSGSGTEFTLTISSLQPDDFATYYCQQERTFGQGTKVEIK
notes: IgG1; also called Ab 665
B17: ADI-41389 (antibody, V domains shown)
VH: EVQLVESGGGVVQPGRSLRLSCAASGFTFSNYAIHWVRQAPGKGLEWVAAISYDGGNKFYADSVKGRFTISRDNSRNTLYLQMNSLRPEDTAVYYCARDRWELNYGIDVWGQGTTVTVSS
VL: SYELMQPPSVSVSPGQTARITCSGDALPKQYAYWYQQKPGQAPVLVIYKDSERPSGIPERFSGSTSGTTVTLTISGVQAEDEADYYCQSADSSSTFFYVFGTGTKLTVL
notes: IgG1; also called Ab 683
B18: ADI-41372 (antibody, V domains shown)
VH: QVQLVQSGAEVKKPGSSVKVSCKASGGISSSYAISWVRQAPGQGLEWMGGIIPIFGTTNYAQKFQGRVTITADKSTSTVYMELSSLRSEDSAVYFCARAYCSGGTCYGGADYWGQGTLVTVSS
VL: SYELTQPPSVSVSPGQTARITCSGDVLPKQYAYWYQQKLGQAPLLVMYKDTERPSGIPERFSGSSSVTAVTLTISGVQAEDEADYYCQSADSTQELFGGGTKLTVL
notes: IgG1; also called Ab 669
B19: ADI-41392 (antibody, V domains shown)
VH: EVQLVESGGGVVQPGGSLRLSCAASGFEFRDYAMHWVRQAPGKGLEWVALISYDGSKIHYADSVQGRFSISRDNSKNSLYLQMNSLRSEDSAKYYCVQDHWLVPAFWGQGAQVTVSS
VL: QPVLTQPASVSGSPGQWITISCTGTSSDIGYYDYVSWYQQYPGKAPKLIIYEVSHRPSGVSNRFSGSKSGNTASLSISGLQAEDEADYYCSSYTTSNAGVFGTGTKLTVL
notes: IgG1

Target: RSV fusion glycoprotein (RSV F) on RSV-A2 virus (respiratory syncytial virus, UniProt P03420 26-574)
Assay: cell-based or functional assay

Binder | Neutralization IC50 (RSV subtype A) [µg/mL]
B1 | > 25
B2 | > 25
B3 | > 25
B4 | > 25
B5 | > 25
B6 | > 25
B7 | > 25
B8 | > 25
B9 | > 25
B10 | > 25
B11 | > 25
B12 | > 25
B13 | > 25
B14 | > 25
B15 | > 25
B16 | > 25
B17 | > 25
B18 | > 25
B19 | 0.18

Target: RSV prefusion F (preF), DS-Cav1 (respiratory syncytial virus, UniProt P03420 26-513)
Assay: BLI, IgG on sensor, 100 nM antigen

Binder | Kd [nM]
B1 | 1.79
B2 | 2.96
B3 | 3.45
B4 | 2.87
B5 | 3.71
B6 | 0.685
B7 | 5.59
B8 | 0.882
B9 | 4.15
B10 | 1.39
B11 | 2.96
B12 | 17.6
B13 | 2.6
B14 | 2.98
B15 | 4.52
B16 | 3.08
B17 | 2.58
B18 | 2.48
B19 | 0.329

Target: RSV postfusion F (postF), F deltaFP (respiratory syncytial virus, UniProt P03420 26-513)
Assay: BLI, IgG on sensor, 100 nM antigen

Binder | Kd [nM]
B1 | 0.278
B2 | 1.02
B3 | 0.563
B4 | 2.22
B5 | 1.18
B6 | 0.308
B7 | 1.64
B8 | 0.479
B9 | 0.705
B10 | 0.369
B11 | 0.543
B12 | 4.72
B13 | 1.34
B14 | 0.739
B15 | 0.601
B16 | 0.878
B17 | 0.513
B18 | 0.425
B19 | 0.359
